Measurements published in US20110165145A1, “IGF-II/IGF-IIE BINDING PROTEINS” (priority 2008, published 2011).

Molecular target: insulin-like growth factor I (IGF-I) (UniProt P05019)
Experiment: cell-based or functional assay

Chain of insulin-like growth factor I (IGF-I) (P05019 49-118 limits assumed): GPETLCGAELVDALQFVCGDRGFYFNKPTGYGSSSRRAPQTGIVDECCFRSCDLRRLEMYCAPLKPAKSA

An IGF-I stimulated Ba/F3 cell proliferation of 30 % inhibition was found for “Neu-IGF-II antibody (anti-IGF-II antibody, R&D system Cat# MAB292)” in this work.
